Test results reported in publication PMC11191887, “Abstracts From the First Annual Research Day Hosted by the Michigan State University College of Osteopathic Medicine, Novi, Michigan, May 15, 2023” (Spartan Medical Research Journal, 2024).

Target: T1, House dust mite allergen Der p 2 (Dermatophagoides pteronyssinus, UniProt P49278)
T1 construct: Der p 2, major allergen of the house dust mite Dermatophagoides pteronyssinus; The structure is said to show monomeric Der p 2; No PDB id is printed in the abstract; source: Pichia pastoris, purified
T1 sequence (P49278 18-146): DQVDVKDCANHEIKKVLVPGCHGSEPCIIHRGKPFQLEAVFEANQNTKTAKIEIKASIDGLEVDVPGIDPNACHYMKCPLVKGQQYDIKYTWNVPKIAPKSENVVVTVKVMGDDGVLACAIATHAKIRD
Assay: crystal structure; purified 4C8 Fab and Der p 2 mixed in a 1:1 molar ratio for crystallization; X-ray, 3.0 Å
Conditions: both partners purified

stoichiometry N: 2
B1: human-derived IgE mAb 4C8 Fab (Fab, V domains shown)
VH: EVQLVESGGGLVQPGGSLRLSCAASGFTFSSYAIHWVRQAPGKGLEWVSGLSGGGGDTDYADSVKGRLTISRDNSKKTLFLEMNNLRPEDTAIYYCAKLTGYGSTPGSYMDVWGKGTTVSVSS
VL: SFELTQPPSVSVSPGQTASITCSGDKLGDIYASWYQQKPGQSPVVVIFQDNKRPSGVPERFSGSNSGNTATLTISGTQALDEADYYCQAWDTSTSVFGTGTKVTVL
notes: Fab of a human IgE mAb isolated from hybridomas obtained from a house dust mite allergic patient; also called hIgE mAb 4C8 Fab; source: CHO cells, purified
